Assay results from patent US20060223140.

Legend:
peptide-T = biological target: T1, peptide-T
T1 chain: ASTTTNYT

PAMP-12 = biological target: T2, PAMP-12
T2 chain: FRKKWNKWALSR

B1: recombinant endo-α-N-acetylgalactosaminidase derived from Bifidobacterium longum JCM1217 (protein)
chain: MKKKKTISAALATALALTCMGSGGGTAFAVPLSDADLQTLASQIQQINDTSDSATASETPSAQADAVEGWTIDSNIAQGGEILEMANGWLHLKSTASNGNAAANPSSSNNWPAVAVWGTDYDFSKAGSFHATIKSPQEGSANRFGFYLGYNDPGSGLFIGYDSGGWFWQTYTGGGSGSWYSGARIAAPSANEEHDIRVSWTDAKVATLTVDGQKAFDVDYSAMTNLSNKLAIKAGSWKELNEVTDVYIKDFPEVVEAAKHAVSGKVVDAGGAAIEGATVRLDKTKVKTGADGTFSFADIEEGEHTLSIAKEGYEDVSQQVTVSGADLAIDPITLNKTVQVASETLKTKKMEVQIKKNFPSVLQYTMTDGKVMYGQSKDVRTVEINGTNIELGDDDVTFKKVSDTEATYTLKVKDEAKKIDAVITVQITVKANQLHLNVTKIKNNLSEGIPEGNGVEENAIQTLSFPNQSLVSVRSSQENAQFTGARMSSNTQKPGDTNFAVTEDTNVTDSDYTYGFISGAGLSAGLWSNSEHDGTYVAAPVRGGSQNTRVYATTQQTGDATSLGLASAPWYYHRTVTDSKGKKYTVAETALPQMAVAIAGDENEDGAVNWQDGAIAYRDIMNNPYKSEEVPELVAWRIAMNFGSQAQNPFLTTLDNVKKVALNTDGLGQSVLLKGYGNEGHDSGHPDYGDIGQRLGGADDMNTMMEEGSKYGARFGVHVNASEMYPEAKAFSEDMVRRNSAGGLSYGWNWLDQGVGIDGIYDLASGSRVSRFADLSKEVGDNMDFIYLDVWGNLTSSGSEDSWETRKMSKMINDNGWRMTTEWGSGNEYDSTFQHWAADLTYGGYTSKGENSEVMRFLRNHQKDSWVGDYPQYGGAANAPLLGGYNMKDFEGWQGRNDYAAYIKNLYTHDVSTKFIQHFKVTRWVNNPLLTADNGNAAAVSDPNTNNGNEQITLKDSNGNVVVVSRGSNDTSSAAYRQRTITFNGVKVASGVVSAGDGSATGDESYLLPWMWDSFTGKLVKDSEQKLYHWNTKGGTTTWTLPDSWKNLSSVKVYQLTDQGKTNEQTVAVSGGKVTLTADAETPYVVYKGEAKQIQVNWSEGMHVVDAGFNGGSNTLTDNWTVSGSGKAEVEGDNNAMLRLTGKVDVSQRLTDLKAGQKYALYVGVDNRSTGDASVTVTSGGKVLATNSTGKSIAKNYIKAYGHNTNSNTENGSSYFQNMYVFFTAPENGDATVTLSHKSTDGAHTYFDDVRIVENQYSGITYEKDGTLKSLTNGFENNAQGIWPFVVSGSEGVEDNRIHLSELHAPFTRAGWDVKKMDDVLDGTWSVKVNGLTQKGTLVYQTIPQNVKFEAGAKYKVSFDYQSGSDDIYAIAVGQGEYSAGSVKLTNLKKALGETGKAEFELTGGVNGDSWFGIYSTATAPDLQGSTGNAQDFGGYKDFVLDNLKIERIESQTRTKAEAQDKVKEIRGKYDSKRAELSDAAWQQYQDTLVKARVLINKNGATAEDFTKAYDILVALDEYMKTAPGNESSDKYDVAADGSDELGGYTVATGSEEPTAGLPSEGPADLAQDGNDSTHWHTSWSENAVGNGTAWYQFNLNEPTTINGLRYLPRSGGMNANGKIKGYKITLTLADGTTKDVVTDAEFSTTTMWQKASFDAVENVTAVRSTVLSSAGQSDSQANKFASAAELRLTTDREVEEETVAPDKTDLNDTIAKANGLKESDYTAESWTALVKAREAAQAVADNDKATAYDVALALTNLESAIAGLEKTGEEPGPGPVEVNKTDLQTAVNKASKLEKADYTTNSWEAFAEALKAAQQVLDNKNATQQDVDTALSALQDAISKLEAATEPKPNPEPGVVDKAALNATINKAAAINLGLYTDDSANALRAALKKAREVSDNSNATQKQVDAAREALEKAIAALVKRPAAKGDGNVVSNTGSDVATIALAGLLLAGAGAAIAYRRNREQL
For B1, the “transglycosylation activity (HPLC product peak; confirmed by MALDI-TOF-MS)” value (shortened to “transglycosylation activity”) (peptide-T) was “it was demonstrated that the sugar chain was transferred to each peptide because peaks of transglycosylation products ("product" portion in each Figure) were observed”, the “transglycosylation activity” value (PAMP-12) was “it was demonstrated that the sugar chain was transferred to each peptide because peaks of transglycosylation products ("product" portion in each Figure) were observed” and the “transglycosylation activity” value (bradykinin) was “it was demonstrated that the sugar chain was transferred to each peptide because peaks of transglycosylation products ("product" portion in each Figure) were observed”.
